Measured values as given in patent publication EP1752538A1 (BAYER CORPORATION, dated 1997).
Like-named read-outs stand apart in the source and are kept apart here. Where no end group is shown, it is not given here.

Key:
Tissue Factor VIIa = target: T1, Tissue Factor VIIa; experiment: enzyme inhibition
T1 construct: Complex of tissue factor and factor VIIa; no method is described for it; also called tissue factor VIIa complex

human plasmin [1] = target: T2, human plasmin (human, UniProt P00747 97-810); experiment: enzyme inhibition kinetics, plasmin 50 pM
T2 construct: Active enzyme

[2] = target: T3, bovine trypsin (type III) (bovine, UniProt P00760 24-246); experiment: enzyme inhibition kinetics, trypsin 48.5 pM
T3 construct: Active enzyme, active-site titrated

Factor XIa = target: T4, Factor XIa (Homo sapiens (Human), UniProt P03951 19-387; P03951 388-625, Activated enzyme cleaved after Arg387 of the precursor. The native molecule is a disulfide-linked homodimer of heavy-plu [CUT]); experiment: enzyme inhibition kinetics, factor XIa 0.1 nM
T4 construct: also called FXIa

human factor Xa = human factor Xa (human, UniProt P00742 41-488, limits assumed); experiment: enzyme inhibition kinetics, factor Xa 0.87 nM
[3] = target: T5, bovine pancreatic kallikrein (bovine); experiment: enzyme inhibition kinetics, kallikrein 100 pM
T5 construct: also called immobilized bovine pancreatic kallikrein; kallikrein-sepharose

human plasma kallikrein = target: T6, human plasma kallikrein (human, UniProt P03952 20-638); experiment: enzyme inhibition kinetics, kallikrein 2.5 nM
T6 construct: Active enzyme

[4] = target: T7, tissue plasminogen activator (single chain form from human melanoma cell culture) (human, UniProt P00750 36-562, limits assumed); experiment: enzyme inhibition, tPA 7.5 nM, chromogenic pNA substrate
T7 construct: also called tPA

human tissue kallikrein = human tissue kallikrein (human, UniProt P06870 25-262); experiment: enzyme inhibition kinetics, tissue kallikrein 0.35 nM, PFR-AMC substrate
human plasmin [5] = target: T2, human plasmin; experiment: enzyme inhibition kinetics, plasmin 50 pM; remark: listed apart in the source
[6] = target: T3, bovine trypsin (type III); experiment: enzyme inhibition kinetics, trypsin 48.5 pM; remark: listed apart in the source
Bovine chymotrypsin = Bovine chymotrypsin (bovine, UniProt P00766 1-245); experiment: enzyme inhibition kinetics, chymotrypsin 5 nM
[7] = target: T5, bovine pancreatic kallikrein; experiment: enzyme inhibition kinetics, kallikrein 92.0 pM

T2 sequence (P00747 97-810 limits assumed): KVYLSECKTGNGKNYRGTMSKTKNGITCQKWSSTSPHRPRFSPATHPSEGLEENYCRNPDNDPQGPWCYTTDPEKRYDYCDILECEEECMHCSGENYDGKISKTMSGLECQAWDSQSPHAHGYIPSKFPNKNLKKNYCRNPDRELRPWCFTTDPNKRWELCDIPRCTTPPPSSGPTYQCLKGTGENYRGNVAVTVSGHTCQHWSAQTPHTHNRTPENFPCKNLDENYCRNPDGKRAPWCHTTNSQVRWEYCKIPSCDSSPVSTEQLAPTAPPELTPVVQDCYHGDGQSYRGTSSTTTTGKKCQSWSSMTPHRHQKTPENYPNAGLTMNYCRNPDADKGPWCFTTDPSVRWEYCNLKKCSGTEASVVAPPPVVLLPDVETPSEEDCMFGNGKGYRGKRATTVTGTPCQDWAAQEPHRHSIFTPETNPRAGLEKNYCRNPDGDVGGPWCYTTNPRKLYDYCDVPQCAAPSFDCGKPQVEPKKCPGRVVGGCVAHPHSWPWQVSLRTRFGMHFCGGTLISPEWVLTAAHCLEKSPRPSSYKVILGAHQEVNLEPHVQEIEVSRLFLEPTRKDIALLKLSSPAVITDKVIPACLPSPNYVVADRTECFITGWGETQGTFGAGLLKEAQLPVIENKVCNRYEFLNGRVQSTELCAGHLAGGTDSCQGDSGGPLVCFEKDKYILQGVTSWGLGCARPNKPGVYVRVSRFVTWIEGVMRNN
T3 sequence (P00760 24-246): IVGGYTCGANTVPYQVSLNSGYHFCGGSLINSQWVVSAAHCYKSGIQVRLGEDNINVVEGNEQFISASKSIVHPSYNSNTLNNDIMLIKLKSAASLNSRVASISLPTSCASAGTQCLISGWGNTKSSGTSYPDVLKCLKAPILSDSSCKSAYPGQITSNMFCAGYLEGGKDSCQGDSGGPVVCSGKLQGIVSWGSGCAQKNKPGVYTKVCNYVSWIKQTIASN
T4 sequence (P03951 19-387 limits assumed, form in doubt, chain 1 of 2): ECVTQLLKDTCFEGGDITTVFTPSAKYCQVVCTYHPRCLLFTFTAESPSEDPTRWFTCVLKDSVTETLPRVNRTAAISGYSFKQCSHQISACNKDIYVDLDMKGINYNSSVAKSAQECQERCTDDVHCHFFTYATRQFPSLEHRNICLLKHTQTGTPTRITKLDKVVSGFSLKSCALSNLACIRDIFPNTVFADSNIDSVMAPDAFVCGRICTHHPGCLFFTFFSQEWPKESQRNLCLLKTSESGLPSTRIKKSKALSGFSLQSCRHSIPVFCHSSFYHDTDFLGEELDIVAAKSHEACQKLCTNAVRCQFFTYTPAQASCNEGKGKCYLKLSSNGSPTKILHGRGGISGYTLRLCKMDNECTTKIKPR
T4 sequence (P03951 388-625 limits assumed, form in doubt, chain 2 of 2): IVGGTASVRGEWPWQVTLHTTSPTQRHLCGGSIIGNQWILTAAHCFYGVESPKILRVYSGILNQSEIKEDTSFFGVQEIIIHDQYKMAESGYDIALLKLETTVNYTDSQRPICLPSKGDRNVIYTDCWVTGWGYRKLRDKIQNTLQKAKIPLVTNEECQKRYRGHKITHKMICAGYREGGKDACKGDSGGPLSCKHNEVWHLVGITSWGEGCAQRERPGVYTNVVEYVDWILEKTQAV
T6 sequence (P03952 20-638 limits assumed): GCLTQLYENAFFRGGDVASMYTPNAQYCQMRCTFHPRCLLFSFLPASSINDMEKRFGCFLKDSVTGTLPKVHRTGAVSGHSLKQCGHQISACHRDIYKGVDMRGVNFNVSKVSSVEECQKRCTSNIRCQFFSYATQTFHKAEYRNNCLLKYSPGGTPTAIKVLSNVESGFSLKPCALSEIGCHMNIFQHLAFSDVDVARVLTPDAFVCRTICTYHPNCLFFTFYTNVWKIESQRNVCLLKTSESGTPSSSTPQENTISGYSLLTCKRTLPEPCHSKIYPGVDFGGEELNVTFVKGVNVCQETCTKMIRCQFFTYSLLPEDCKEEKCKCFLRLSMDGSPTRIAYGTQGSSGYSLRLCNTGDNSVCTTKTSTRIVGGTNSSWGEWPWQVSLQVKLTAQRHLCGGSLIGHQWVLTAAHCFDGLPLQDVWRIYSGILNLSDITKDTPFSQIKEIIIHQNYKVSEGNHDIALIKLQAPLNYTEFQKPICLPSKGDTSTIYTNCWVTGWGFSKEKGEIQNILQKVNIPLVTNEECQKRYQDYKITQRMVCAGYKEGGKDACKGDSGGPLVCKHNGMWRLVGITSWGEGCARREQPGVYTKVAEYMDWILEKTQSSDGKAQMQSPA
Chain of human tissue kallikrein (P06870 25-262 limits assumed): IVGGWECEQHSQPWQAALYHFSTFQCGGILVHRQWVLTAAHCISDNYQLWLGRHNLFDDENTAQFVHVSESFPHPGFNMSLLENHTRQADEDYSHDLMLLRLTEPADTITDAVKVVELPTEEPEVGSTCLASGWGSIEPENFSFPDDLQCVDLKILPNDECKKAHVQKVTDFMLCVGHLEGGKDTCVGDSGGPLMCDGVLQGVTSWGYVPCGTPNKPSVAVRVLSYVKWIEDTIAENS
T7 sequence (P00750 36-562 limits assumed): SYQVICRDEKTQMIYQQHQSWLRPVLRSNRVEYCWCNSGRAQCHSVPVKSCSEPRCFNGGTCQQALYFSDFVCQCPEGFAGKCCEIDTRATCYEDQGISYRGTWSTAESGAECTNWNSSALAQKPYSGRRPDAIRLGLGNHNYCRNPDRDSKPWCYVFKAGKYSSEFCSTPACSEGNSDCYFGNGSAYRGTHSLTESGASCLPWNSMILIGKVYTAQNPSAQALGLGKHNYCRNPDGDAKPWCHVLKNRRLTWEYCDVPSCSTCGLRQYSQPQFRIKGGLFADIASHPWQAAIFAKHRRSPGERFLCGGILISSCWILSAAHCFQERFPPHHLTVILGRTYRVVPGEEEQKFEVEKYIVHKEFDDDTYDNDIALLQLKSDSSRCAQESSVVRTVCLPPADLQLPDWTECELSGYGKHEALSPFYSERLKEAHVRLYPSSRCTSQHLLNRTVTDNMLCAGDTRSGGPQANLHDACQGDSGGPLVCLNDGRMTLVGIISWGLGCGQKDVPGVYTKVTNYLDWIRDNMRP

B1: recombinant placental bikunin (1-170) from baculovirus / Sf9 cells (other)
chain: ADRERSIHDFCLVSKVVGRCRASMPRWWYNVTDGSCQLFVYGGCDGNSNNYLTKEECLKKCATVTENATGDLATSRNAADSSVPSAPRRQDSEDHSSDMFNYEEYCTANAVTGPCRASFPRWYFDVERNSCNNFIYGGCRGNKNSYRSEEACMLRCFRQQENPPLPLGSK
modifications: asparagine 30 silent in sequencing, consistent with glycosylation
notes: signal peptide correctly removed (N-terminus ADRER); also called Recombinant Bikunin; Sf9-derived human placental bikunin (1-170)
Ki (Tissue Factor VIIa): 800 nM | Ki (human plasmin [1]): 0.23 nM | Ki [2]: 0.064 nM | Ki (Factor XIa): 3 nM | Ki (human factor Xa): 180 nM | Ki [3]: 0.12 nM | Ki (human plasma kallikrein): 0.18 nM | Ki [4]: < 60 nM | Ki (human tissue kallikrein): 0.04 nM

B2: native human placental bikunin isolated from human placenta (other)
chain: ADRERSIHDFCLVSKVVGRCRASMPRWWYNVTDGSCQLFVYGGCDGNSNNYLTKEECLKKCATVTENATGDLATSRNAADSSVPSAPRRQDSEDHSSDMFNYEEYCTANAVTGPCRASFPRWYFDVERNSCNNFIYGGCRGNKNSYRSEEACMLRCFRQQENPPLPLGSKVVVLAGAVS
modifications: asparagine 30 silent in sequencing, likely glycosylated
notes: Soluble protein purified from placenta; A minor species starts at residue 6; also called native Placental Bikunin (1-179)
Ki (human plasmin [5]): 1.9 nM | Ki [6]: 0.13 nM

B3: synthetic placental bikunin (7-64), first preparation (other)
chain: IHDFCLVSKVVGRCRASMPRWWYNVTDGSCQLFVYGGCDGNSNNYLTKEECLKKCATV
modifications: ends and bridges not checked; also: may be incompletely deprotected before refolding
notes: also called placental bikunin fragment (7-64); KID1
Ki (Bovine chymotrypsin): 0.6 nM | Ki [7]: 0.4 nM
